Reference: patent publication US20100211325A1
Residue numbers refer to the chain shown, from its start. Names and notes keep the numbering of the source. Blank lines part the entries; values can stand above or below the binder they belong to.

Legend:
[1] = target: Laminin 511/521 (LM511/521) (UniProt O15230); test: ELISA, Lu protein captured, 5 nM LM511/521, against native Lu gp or D1+2+3+4
[2] = target: Laminin 511/521 (LM511/521) (UniProt O15230); test: SPR (Biacore), Lu protein captured, 10 nM LM511/521, against native Lu gp or D1+2+3+4
[3] = target: Laminin 511/521 (LM511/521) (UniProt O15230); test: cell-based or functional assay
[4] = target: Laminin 511/521 (LM511/521) (UniProt O15230); test: electron tomography (Protein Tomography) of an equimolar mixture of Lu gpFc and LM511/521
[5] = target: Laminin 511/521 (LM511/521) (UniProt O15230); test: ELISA, 0.05 nM Lu gpFc captured by anti-human Fc, 5 nM LM511/521, anti-laminin detection
[6] = target: Laminin 511/521 (LM511/521) (UniProt O15230); test: SPR (Biacore X), Lu gpFc captured on protein A chip (40 RU), 100 µl injection of 10 nM LM511/521, total change in RU
[7] = target: Laminin 511/521 (LM511/521) (UniProt O15230); test: ELISA of FIG. 3c, 0.05 nM Lu gpFc captured by anti-Fc, LM511/521 added, anti-laminin detection
[8] = target: Laminin 511/521 (LM511/521) (UniProt O15230); test: SPR (Biacore) of FIG. 6e, 100 µl injection of 10 nM LM511/521 at 30 µl/min
[9] = target: Laminin 511/521 (LM511/521) (UniProt O15230); test: not given
[10] = target: Laminin 511/521 (LM511/521) (UniProt O15230); test: ELISA of FIG. 6d, 0.05 nM Lu protein, LM511/521 added, anti-laminin detection

B2: Human Lutheran glycoprotein on cells (K562 transfectant expressing Lu gp; late stage erythroblasts) (receptor)
chain: EVRLSVPPLVEVMRGKSVILDCTPTGTHDHYMLEWFLTDRSGARPRLASAEMQGSELQVTMHDTRGRSPPYQLDSQGRLVLAEAQVGDERDYVCVVRAGAAGTAEATARLNVFAKPEATEVSPNKGTLSVMEDSAQEIATCNSRNGNPAPKITWYRNGQRLEVPVEMNPEGYMTSRTVREASGLLSLTSTLYLRLRKDDRDASFHCAAHYSLPEGRHGRLDSPTFHLTLHYPTEHVQFWVGSPSTPAGWVREGDTVQLLCRGDGSPSPEYTLFRLQDEQEEVLNVNLEGNLTLEGVTRGQSGTYGCRVEDYDAADDVQLSKTLELRVAYLDPLELSEGKVLSLPLNSSAVVNCSVHGLPTPALRWTKDSTPLGDGPMLSLSSITFDSNGTYVCEASLPTVPVLSRTQNFTLLVQGSPELKTAEIEPKADGSWREGDEVTLICSARGHPDPKLSWSQLGGSPAEPIPGRQGWVSSSLTLKVTSALSRDGISCEASNPHGNKRHVFHFGTVSPQTSQAGVAVMAVAVSVGLLLLVVAVFYCVRRKGGPCCRQRREKGAPPPGEPGLSHSGSEQPEQTGLLMGGASGGARGGSGGFGDEC
cell adhesion assay: % of cells bound to coated laminin [3]: 70 to 85%

B4: Lu gpFc E132A/D133A (Fc fusion, not shown: a dimerising Fc or GST)
chain: EVRLSVPPLVEVMRGKSVILDCTPTGTHDHYMLEWFLTDRSGARPRLASAEMQGSELQVTMHDTRGRSPPYQLDSQGRLVLAEAQVGDERDYVCVVRAGAAGTAEATARLNVFAKPEATEVSPNKGTLSVMAASAQEIATCNSRNGNPAPKITWYRNGQRLEVPVEMNPEGYMTSRTVREASGLLSLTSTLYLRLRKDDRDASFHCAAHYSLPEGRHGRLDSPTFHLTLHYPTEHVQFWVGSPSTPAGWVREGDTVQLLCRGDGSPSPEYTLFRLQDEQEEVLNVNLEGNLTLEGVTRGQSGTYGCRVEDYDAADDVQLSKTLELRVAYLDPLELSEGKVLSLPLNSSAVVNCSVHGLPTPALRWTKDSTPLGDGPMLSLSSITFDSNGTYVCEASLPTVPVLSRTQNFTLLVQGSPELKTAEIEPKADGSWREGDEVTLICSARGHPDPKLSWSQLGGSPAEPIPGRQGWVSSSLTLKVTSALSRDGISCEASNPHGNKRHVFHFGTVSPQTSQA
ELISA % of native Lu gpFc [5]: 69.4%
Biacore Δ RUs [6]: 57.3 RU

B5: Lu gpFc E180A (Fc fusion, not shown: a dimerising Fc or GST)
chain: B4 chain with A132E, A133D, E180A
ELISA % of native Lu gpFc [5]: 104%
Biacore Δ RUs [6]: 78.3 RU

The next lines start with the values.

% of the binding of native Lu gp (ELISA) [1]: 68%
% of the binding of native Lu gp (Biacore) [2]: 42%
B1: Lu gpFc domain deletion protein D1+2+3b (domains 1, 2 and 3, ending L354EL-…-Fc) (Fc fusion, not shown: a dimerising Fc or GST)
chain: EVRLSVPPLVEVMRGKSVILDCTPTGTHDHYMLEWFLTDRSGARPRLASAEMQGSELQVTMHDTRGRSPPYQLDSQGRLVLAEAQVGDERDYVCVVRAGAAGTAEATARLNVFAKPEATEVSPNKGTLSVMEDSAQEIATCNSRNGNPAPKITWYRNGQRLEVPVEMNPEGYMTSRTVREASGLLSLTSTLYLRLRKDDRDASFHCAAHYSLPEGRHGRLDSPTFHLTLHYPTEHVQFWVGSPSTPAGWVREGDTVQLLCRGDGSPSPEYTLFRLQDEQEEVLNVNLEGNLTLEGVTRGQSGTYGCRVEDYDAADDVQLSKTLELRVAYLNSPQTSQA

% of LM511/521 molecules bound to Lu gpFc [4]: 50 to 60%
ELISA % of native Lu gpFc [5]: 100%
Biacore Δ RUs [6]: 115 RU
OD450 [7]: 0.95 OD450
total change in RU [8]: 129 RU
Kd [9]: 7.9 nM
koff [9]: 0.0126 s⁻¹
kon [9]: 1.6e+06 M⁻¹ s⁻¹
OD450 [10]: 0.99 OD450
B3: Native Lu gpFc fusion protein (five extracellular domains of human Lutheran glycoprotein fused to Fc) (Fc fusion, not shown: a dimerising Fc or GST)
chain: B4 chain with A132E, A133D
